Consider 1 molecule from article PMC9132103 (Science (New York, N.Y.), 2021).

Data set [1] concerns the target T1, IL-10Rα ECD, from Expi-293 cells (for structural studies) (human, UniProt Q13651 20-235).
T1 sequence (looked up): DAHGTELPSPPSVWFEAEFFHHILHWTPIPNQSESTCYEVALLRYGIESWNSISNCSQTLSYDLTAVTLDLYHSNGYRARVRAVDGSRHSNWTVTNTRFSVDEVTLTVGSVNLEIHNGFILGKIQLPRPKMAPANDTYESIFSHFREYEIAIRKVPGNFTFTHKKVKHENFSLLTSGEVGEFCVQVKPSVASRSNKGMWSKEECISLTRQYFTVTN
As to the kind of experiment: SEC. (SEC sorts molecules by how far they enter the pores of the column.)

Data set [2] deals with the molecule itself. As to the kind of experiment: cryo-EM structure.

B1: Affinity matured IL-10 (super-10, clone 5.1), soluble (ligand, UniProt P22301 19-178, looked up)
chain: SPGQGTQSENSCTHFPGYLPNMLRDLRDAFSRVKTFFQMKDQLDNLLLKESLLEDFKGYLGCQALSEMIQFYLEEVMPQAENQDPDIKAHVQSLGENLKDLRLWLRRCHRFLPCENKSKAVEQVKNAFNKLQEKGIYKAMSEFDIFINYIEAYMTMKIRN
For B1, the binding result in data set [1] and in data set [2] was “binds” throughout.
